Results published in patent EP4722253A1.

Molecular target: HER2 expressed on JIMT-1 cells (UniProt P04626)
Test: flow cytometry on JIMT-1 cells, antibody at 100 nM, FITC secondary

With IgG control (antibody) the MFI was 12500.
